Biological target: Recombinant human CD8ab protein (extracellular domains of CD8a and CD8b with leucine zippers and tags) (human) (UniProt P01732)
Test: ELISA: antigen coated on the plate, antibody titrated, anti-IgG (Fc)-HRP and TMB, A450

Chain of Recombinant human CD8ab protein (extracellular domains of CD8a and CD8b with leucine zippers and tags) (human) (P01732 22-182, chain 1 of 2): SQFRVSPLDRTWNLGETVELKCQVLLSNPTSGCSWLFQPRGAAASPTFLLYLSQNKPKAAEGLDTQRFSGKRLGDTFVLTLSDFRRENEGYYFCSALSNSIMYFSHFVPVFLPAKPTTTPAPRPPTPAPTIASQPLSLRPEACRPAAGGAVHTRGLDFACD
Chain of Recombinant human CD8ab protein (extracellular domains of CD8a and CD8b with leucine zippers and tags) (human) (P10966 22-170, chain 2 of 2, further chain): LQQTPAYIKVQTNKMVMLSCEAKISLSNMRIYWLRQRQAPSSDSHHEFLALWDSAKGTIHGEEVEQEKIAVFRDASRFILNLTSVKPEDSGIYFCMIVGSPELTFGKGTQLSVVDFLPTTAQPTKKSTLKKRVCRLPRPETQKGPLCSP

Substance: xhCD8a2 (clone SK1, Biolegend) (antibody)
- EC50 (read off the curve): 0.1 nM
